This series has as its system Jurkat cells. The series can be described thus: Intracellular uptake in Jurkat cells by ICP-MS. Type of series: cell-based. The conditions noted are these: 5 μM, 37 °C, 5% CO2, ICP-MS, n = 3. Here is the method: The time-dependent intracellular uptake of 4 into Jurkat cells was measured by ICP-MS (inductively coupled plasma-mass spectrometry). Jurkat cells were treated with 4 (5 μM) for 30 min, 1 h, 2 h, and 3 h at 37 °C under 5% CO2, washed three times with PBS, and lysed with nitric acid at 4 °C overnight. The lysates were diluted with H2O, and the samples were analyzed by ICP-MS.
In a 1.5 mL Eppendorf tube, Jurkat cells (1.0 × 10^6 cells) were treated with 4 (5 μM) for 0–3 h at 37 °C under 5% CO2 (n = 3). After the cells had been washed three times with PBS, HNO3 (60%, 0.5 mL) was added to the cells and the resulting solutions were incubated overnight at 4 °C. After centrifugation (15000 rpm, 4 °C, 10 min), the supernatant was transferred to a 15 mL tube, diluted with H2O (4.5 mL), and filtered. The number of iridium atoms was measured by ICP-MS (NexION300S, PerkinElmer).

Consider 1 compound from article PMC9022229, “Induction of Paraptosis by Cyclometalated Iridium Complex-Peptide Hybrids and CGP37157 via a Mitochondrial Ca^2+ Overload Triggered by Membrane Fusion between Mitochondria and the Endoplasmic Reticulum” (Biochemistry, 2022).

Residues, ends and D or L forms follow the SMILES beside them. *: point of attachment. X1 = O=C(COc1ccc(-c2ccccn2)cc1)NCCCCCCCCN*

As to `NCCCC[C@H](NC(=O)[C@H](CCCCN)NC(=O)[C@@H](N)CCCCN)C(=O)NCC(=O)NCC(=O)NCCCCCCCCNC(=O)COc1ccc(-c2ccccn2)cc1` [compound 4] (H-KKKGG-X1), the “Ir atom (intracellular amount)” value (30 min) worked out at 0.64 ± 0.01 fmol/cell, the “Ir atom (intracellular amount)” value (1 h) is 1.3 ± 0.1 fmol/cell, the “Ir atom (intracellular amount)” value (2 h) is given as 1.2 ± 0.1 fmol/cell and the “Ir atom (intracellular amount)” value (3 h) stood at 1.5 ± 0.4 fmol/cell.
